According to patent publication US20170152228A1, “SCREENING METHODS FOR THE BINDING AFFINITY OF CHEMICAL […] TO BIOLOGICAL MOLECULES AND NEDD4-1 […] THE SCREENING METHODS” (Northwestern University, published 2017):

Biological target: ubiquitin (Homo sapiens (Human), UniProt P0CG48)
Assay: not stated how the value was obtained. It is named in the context of the fluorescence polarization assay.

- Kd: 11 µM
B1: NEDD4-1 HECT domain (enzyme)
chain: GPLGSRDYKRKYEFFRRKLKKQNDIPNKFEMKLRRATVLEDSYRRIMGVKRADFLKARLWIEFDGEKGLDYGGVAREWFFLISKEMFNPYYGLFEYSATDNYTLQINPNSGLCNEDHLSYFKFIGRVAGMAVYHGKLLDGFFIRPFYKMMLHKPITLHDMESVDSEYYNSLRWILENDPTELDLRFIIDEELFGQTHQHELKNGGSEIVVTNKNKKEYIYLVIQWRFVNRIQKQMAAFKEGFFELIPQDLIKIFDENELELLMCGLGDVDVNDWREHTKYKNGYSANHQVIQWFWKAVLMMDSEKRIRLLQFVTGTSRVPMNGFAELYGSNGPQSFTVEQWGTPEKLPRAHTCFNRLDLPPYESFEELWDKLQMAIENTQGFDGVD
